Data as given in paper PMC7035956 (Nature chemical biology, 2019).

T1: FANCL URD-RING fragment (FANCL^UR) (human, UniProt Q9NW38 109-375)
T1 sequence: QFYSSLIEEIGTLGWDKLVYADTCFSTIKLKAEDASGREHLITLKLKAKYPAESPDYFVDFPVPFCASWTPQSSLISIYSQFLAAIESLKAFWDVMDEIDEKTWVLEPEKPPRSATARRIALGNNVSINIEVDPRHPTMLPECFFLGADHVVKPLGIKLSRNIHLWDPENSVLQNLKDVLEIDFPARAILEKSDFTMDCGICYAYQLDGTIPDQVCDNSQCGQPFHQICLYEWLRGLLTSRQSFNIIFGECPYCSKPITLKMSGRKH

B1: Ube2T (enzyme)
chain: MQRASRLKRELHMLATEPPPGITCWQDKDQMDDLRAQILGGANTPYEKGVFKLEVIIPERYPFEPPQIRFLTPIYHPNIDSAGRICLDVLKLPPKGAWRPSLNIATVLTSIQLLMSEPNPDDPLMADISSEFKYNKPAFLKNARQWTEKHARQKQKADEEEMLDNLPEAGDSRVHNSTQKRKASQLVGIEKKFHPDV
B2: Ube2T T23R+W25Q (enzyme)
chain: MQRASRLKRELHMLATEPPPGIRCQQDKDQMDDLRAQILGGANTPYEKGVFKLEVIIPERYPFEPPQIRFLTPIYHPNIDSAGRICLDVLKLPPKGAWRPSLNIATVLTSIQLLMSEPNPDDPLMADISSEFKYNKPAFLKNARQWTEKHARQKQKADEEEMLDNLPEAGDSRVHNSTQKRKASQLVGIEKKFHPDV
B3: Ube2T D32A+D33A+L92A (enzyme)
chain: MQRASRLKRELHMLATEPPPGITCWQDKDQMAALRAQILGGANTPYEKGVFKLEVIIPERYPFEPPQIRFLTPIYHPNIDSAGRICLDVLKAPPKGAWRPSLNIATVLTSIQLLMSEPNPDDPLMADISSEFKYNKPAFLKNARQWTEKHARQKQKADEEEMLDNLPEAGDSRVHNSTQKRKASQLVGIEKKFHPDV

Legend:
[1] = target: Xenopus laevis FANCD2 (xFANCD2) (Xenopus laevis); assay: MST
[2] = target: T1, FANCL URD-RING fragment (FANCL^UR); assay: ITC
[3] = target: B2; assay: ITC
[4] = target: B3; assay: ITC
[5] = target: B1; assay: ITC

Molecule	Kd [2] [nM]	binding result [2]	also measured
Ube2Tv3 in the Ube2T^1-152 background (E54R+P93G+P94G) (from UniProt Q9NPD8 1-152) (domain or fragment)			Kd [1]: 238000 nM
Ube2T^1-152 (from UniProt Q9NPD8 1-152) (domain or fragment)			Kd [1]: 320000 nM
B1	~119		
Ube2T K95A (enzyme) MQRASRLKRELHMLATEPPPGITCWQDKDQMDDLRAQILGGANTPYEKGVFKLEVIIPERYPFEPPQIRFLTPIYHPNIDSAGRICLDVLKLPPAGAWRPSLNIATVLTSIQLLMSEPNPDDPLMADISSEFKYNKPAFLKNARQWTEKHARQKQKADEEEMLDNLPEAGDSRVHNSTQKRKASQLVGIEKKFHPDV		binds	
Ube2T R84S+K91A+K95A (enzyme) MQRASRLKRELHMLATEPPPGITCWQDKDQMDDLRAQILGGANTPYEKGVFKLEVIIPERYPFEPPQIRFLTPIYHPNIDSAGSICLDVLALPPAGAWRPSLNIATVLTSIQLLMSEPNPDDPLMADISSEFKYNKPAFLKNARQWTEKHARQKQKADEEEMLDNLPEAGDSRVHNSTQKRKASQLVGIEKKFHPDV		binds	
B2	200		
Ube2T K91A (enzyme) MQRASRLKRELHMLATEPPPGITCWQDKDQMDDLRAQILGGANTPYEKGVFKLEVIIPERYPFEPPQIRFLTPIYHPNIDSAGRICLDVLALPPKGAWRPSLNIATVLTSIQLLMSEPNPDDPLMADISSEFKYNKPAFLKNARQWTEKHARQKQKADEEEMLDNLPEAGDSRVHNSTQKRKASQLVGIEKKFHPDV		binds	
FANCL RING (FANCL^R) (domain or fragment) EIDFPARAILEKSDFTMDCGICYAYQLDGTIPDQVCDNSQCGQPFHQICLYEWLRGLLTSRQSFNIIFGECPYCSKPITLKMSGRKH			Kd [3]: ~253 nM; Kd [4]: ~253 nM; Kd [5]: ~253 nM
Ube2T R84S (enzyme) MQRASRLKRELHMLATEPPPGITCWQDKDQMDDLRAQILGGANTPYEKGVFKLEVIIPERYPFEPPQIRFLTPIYHPNIDSAGSICLDVLKLPPKGAWRPSLNIATVLTSIQLLMSEPNPDDPLMADISSEFKYNKPAFLKNARQWTEKHARQKQKADEEEMLDNLPEAGDSRVHNSTQKRKASQLVGIEKKFHPDV		binds	
B3	~119		
